From the DeepSol protein solubility set

Assay: soluble on expression in E. coli; label from the status in PepcDB or PDB records

MAGLVDRVSGARLDPAAEAEIRYLEAMIARLEAGEEDPEDFRVFRLKNGIYGIRGRPEHHMIRIKLPVGRITPEGLRVLADVAERYAENRLAHVTTRQAVQLHHVHRRDVPKVLRAVNAVGLTTREACGHSIRAITCCPYAGVSPEEPFDVTPYAEAAYRYFLRHPVGQNLPRKFKIAFEGCAADHARTPIHDIGVVAALEGGKRGFRVYVGGGLGAAPMSAELLEAFTPEEDLLPTMLAIVRLFDRYGNRKVLTQARLKFLVKKWGIAAFREAVREERRLVKLTASGEDLEAWAPPPEPEPPRLPSPPKKPFSFAPGFDAWRRTNLFKQKQEGFYTVTVRLPLGDITPEGLRALAAIAETYAAEVRSAISQNLLLRFVPEEALGGLYEALLEAGLALPEAHTLLDITRCPGADTCNLAITRSRGLAQALEAHLATLPLAQDPGAKAIGVKISGCPNSCGQHHIADIGFYGSSRKVGEREVPHYVLLLGGRTREGEARFGQVVGRLPARRVPEAVERILKRYLEERQNGESFQAYLDRVGAASFKPLLQELQEVPPYEEAPEFYQDLGAEGEAFSVQLGRGECAV
soluble on expression in E. coli: soluble

MGSDKIHHHHHHMPGSQQSLPLAMVRGQALNSMPVDLFIPPEALEVFLETFEGPLDLLLYLIRKQKLDVVDLPIQQITQQYLLYIEILTEARIELAADYLVMAATLAEIKSRLLLPKMASEDDEEEDPRVVLIRQLKAYEVIKQAAVDIDTLPRIERDVFQASVSAAPDIKPITVPPEVSLVDIARAFGEVLKRIDANEDHHVKREHLSTRERMSQILAKLSSTEYIGFECLFDVSEGRAGVVVSFLALMELVKELLVELVQNEPFSPIYVKAY
soluble on expression in E. coli: not soluble

SRTLQFTKMATDHSGAGNLMDCWNAGLELKSCTDEIVKFFLSQTGTSEPPVKGGIDKDCCGAIGLVVKDCWSVMFTSLGLTTMEGNNLREYCEFQAEKSELSPSPAPETLALSPVEITYPGLDY
soluble on expression in E. coli: soluble

MSQDNLSAVLYGVDDLRLEQVPIPKPGPNQVLVKVHTVGICGSDVHYWTHGAIGPFVVKEPMIVGHETSGIVSEVGNEVKHLKVGDRIAMEPGLPCKLCEHCKTGRYNLCPEMRFFATPPVHGTLSRFVVHDADFCFKLPDNLSFEDGALIEPLSVAIHACRRGNVQMGHRVLVLGAGPIGVLNLITAKAVGAGKVVITDLDDGRLALAKKLGADATINVKGKSLDAVKSEIITALGDQQPDVCIECTGAQPSIETAITTTKSGGVIVLVGLGADRVEIPIIESATREVDMRGIFRYVNCYPTAIELISSGKLNLSGLTRAHYKLEETQEAFKRTQKADVIKVFIQC
soluble on expression in E. coli: not soluble

MCIAIPGRIERIDYPIAIVDFKGLKKEVRIDLLENPQIGDYVLVHVGMAIQKVDEEEAKKTWELLERVADETGNQAF
soluble on expression in E. coli: not soluble

LDNAPLLELDVQEWVNHEGLSNEDLRGKVVVVEVFQMLCPGCVNHGVPQAQKIHRMIDESQVQVIGLHSVFEHHDVMTPEALKVFIDEFGIKFPVAVDMPREGQRIPSTMKKYRLEGTPSIILADRKGRIRQVQFGQVDDFVLGLLLGSLLSETD
soluble on expression in E. coli: not soluble

EHDNTSYICKKIDEDEYVLSARLEIEKVNEMFGLDLPESDDYLTVGGLILNQYQSFPKLHELVRVGRYQFKIIKVTATKIELVRLKVME
soluble on expression in E. coli: not soluble

MALPPGLMVVEEIISSEEEKMLLESVDWTEDTDNQNSQKSLKHRRVKHFGYEFHYENNNVDKDKPLSGGLPDICESFLEKWLRKGYIKHKPDQMTINQYEPGQGIPAHIDTHSAFEDEIVSLSLGSEIVMDFKHPDGIAVPVMLPRRSLLVMTGESRYLWTHGITCRKFDTVQASESLKSGIITSDVGDLTLSKRGLRTSFTFRKVRQTPCNCSYPLVCDSQRKLEHHHHHH
soluble on expression in E. coli: soluble

MMDVSGVGFPSKVPWKKMSAEELENQYCPSRWVVRLGAEEALRTYSQIGIEATTRARATRKSLLHVPYGDGEGEKVDIYFPDESSEALPFFLFFHGGYWQSGSKDESAFMVHPLTAQGVAVVIVAYGIAPKGTLDHMVDQVTRSVAFVQKRYPSNKGIYLCGHSAGAHLAAMMLLADWTKHGVTPNLRGFFLVSGVFDLEPIVYTSQNVALQLTLEDAQRNNPQLKVAQAQPVDPTCRVLVVVGQFDSPEFHRQSWEFYQVLPVQTLCQGEWKASFEELHDVDHFEIVENLTQKDNVLTQIILKTIFQ
soluble on expression in E. coli: soluble

MAGDPMQADLFDAEQTGIRTRLGEQAWVLRGFALPWLDALLPALRAVIAQAPLRHMATPGGFTMSVALTNCGALGWTTDAHGYRYRPDDPQTGLPWPPMPQAFAQLAREAAAQAGFAGFDPDACLVNRYAPGARMSLHQDKNERDFGAPIVSVSLGLPAMFLFGGARRDERPARIPLLHGDVAVWGGVDRLRYHGVMPLAEGQHPLLGRQRINFTLRRAGALEHHHHHH
soluble on expression in E. coli: not soluble

MGSDKIHHHHHHMECSGLYPRRNRSSHNQSEFQVSFMATELSALPANHPRVTFGKVGVLLVNLGTPDGTDYWPMRRYLAEFLSDKRVIEWSRLYWYPILYGIVLNKRPQKVGKAYEEIWNHERNESYLRTYTRSQGELMAAALKDFPNVVVDWAMRYGQPSIASRIDALKEQGCEKILLFPLYPQYAASTTATVNDKAFEHLMKLRWQPAIRTVPPYHDDPAYIEGLAASVKNHLATLDWEPEMLITSFHGIPQSYFKKGDPYYCHCQKTARLLREALGRTEKNFMITFQSRFGPEEWLQPYTDKTVEKLASEGIKRIAVMNPGFVSDCLETLEEIAGEAGEIFLHNGGEKFTHIPCLNDSTEGMNVLEKVVRRELQGWV
soluble on expression in E. coli: not soluble

VINQVESASKVIDWPLALKRSANKADLAKEMLLGLVESLPETQLSIREAIDVQDIAQIKRLVHKLNGACCYTGTPNLAKITIQLETQLKMGLSTEELEPEFLEFFEHIEQVLFAVPEALKEMSEN
soluble on expression in E. coli: not soluble

MGSDKIHHHHHHMKTSQLIRKIQEKIDEAMSRLNDLESMEIKTEEYLDTFLALVNNTYKKAEIYNTLVDQWNLLMKQGDEIKRSIEEFKPEYVHHLTEMMKYDGINLLYLRENEHLRAIGIDEIAARTFQEFLKEEELAERSEAFNQAVRKTREQIQQYHMFHYYVSLTDNELKVDENYRLAGNYYRYSIDFFDKNFPYKSIGISRKLENVPELLEKFFRLREKLEGEDPEGDRVRKTLERLYSLSSFDTVEEFNAIIDEWTDLYEAYKQEDPFKTNVLSYSYINKDGRTVQKTYPTYDFLRWLSQRNRKNQEYILNNYLRRITDDPTREGYEIRDPSVVLENRLVEATIKALPNYKSGIMSEIDSLKKMSRMKRKRKEEEIQKKIMTDPFAAVGAKVPEEIKYWLLRRLDVTHPDLYEEWNRITSELQAYLEEVVKQ
soluble on expression in E. coli: not soluble

QLPCNLSPLNWVGMQHIDLPTVIDTANQTVNTKVDVYVNLPKSSVKGIHMSRLYHLINHLSVLNTMSIKSVLKQMIDSHQDCGTTAAKIVFKFDLLLKRDAIVSTALSGWKSYPVIIEASIINELFNIEYKLDISYSSTCPCSAALSRQIIKNGFKADFSSQNLIPSADIEAWLEQYATLATPHSQRSIATVVVQPFDYAHDINFVDLIDSIENTLKTPTQTAVKRADEQAFAKLNGENLMFVEDAARRLKMLLDQKYKFWSAQVVHQESLHPHDAIAVAISS
soluble on expression in E. coli: not soluble

MSTAFAIPLFQFSPKPLHWKKRIAMWKAEIMDIKTTETGSRGEYSATIDGHKAQMTYSRTSPSLIIIDHTGVPDALRGKGVGQALAAHAIDEARKGGWKIIPLCPFFKAQTLRHADWADVIQGLEHHHHHH
soluble on expression in E. coli: soluble

MKRDARDAPKSITLGFEADCVTLPIDAILPLRALGKSAKSSRKYRQIAASIAQIGIVEPPVVVRNPDRSATWLLLDGHMRIEALKDAGGSEVECLVSTDDEAFTYNRQISRLAPIQEHKMIRKAIERGVPEEKIALALDLNMSSIRRKARLLDGICEEAVAILKDKPCTNAVFDALRKMRTMRQIEAAELLVNANNYSVAYVNAILAGTPQAQLVESSKPKKVKGITPDAMARMEQELARLQEGIASIQDTYGEDHLHLTVIKGYVGKLLGNARVVRYLAQNHPEFLGEFQTITEITPAEADAAE
soluble on expression in E. coli: not soluble

MLVDSFNRVIDYIRVSVTKQCNFRCQYCMPATPLNFFDNEELLPLDNVLEFLKIAIDEGVKKIRITGGEPLLRKGLDEFIAKLHAYNKEVELVLSTNGFLLKKMAKDLKNAGLAQVNVSLDSLKSDRVLKISQKDALKNTLEGIEESLKVGLKLKLNTVVIKSVNDDEILELLEYAKNRHIQIRYIEFMENTHAKSLVKGLKEREILDLIAQKYQIIEAEKPKQGSSKIYTLENGYQFGIIAPHSDDFCQSCNRIRLASDGKICPCLYYQDAIDAKEAIINKDTKNIKRLLKQSVINKPEKNMWNDKNSETPTRAFYYTGGLEHHHHHH
soluble on expression in E. coli: not soluble
